One block for each binder: values may come before it.
Experiments:
[1] = molecular target: T1, extracellular domain of human CD47 (HuCD47 ECD) (human, UniProt Q08722); experiment: ELISA; plates coated with 1 ug/ml HuCD47 ECD or CyCD47 ECD in 0.1 M PBS; serially diluted antibodies, 37 °C, 2 h; bound antibody detected with anti-human Fc HRP; conditions: both partners purified
T1 construct: human CD47 extracellular domain, amino acids Gln1-Pro121; source: bought: Acro Biosystems; not shown: His6, C-terminal, kept

[2] = molecular target: T1, extracellular domain of human CD47 …; experiment: BLI; Octet Red96; 5 ug/ml antibody held on anti-human IgG-Fc biosensors; 2-fold dilutions of HuCD47 ECD or CyCD47 ECD in 1 x PBS, 0.1% BSA, 0.02% Tween-20; 1:1 Langmuir global fit; apparent Kd; conditions: both partners purified
[3] = molecular target: T2, extracellular domain of cynomolgus CD47 (CyCD47 ECD) (Macaca fascicularis, UniProt A0A2K5X4I2); experiment: as above; conditions: both partners purified
T2 construct: cynomolgus CD47 extracellular domain; source: bought: Acro Biosystems

[4] = molecular target: T3, extracellular domain of cynomolgus CD47 (CyCD47 ECD) (cynomolgus); experiment: ELISA
T3 chain: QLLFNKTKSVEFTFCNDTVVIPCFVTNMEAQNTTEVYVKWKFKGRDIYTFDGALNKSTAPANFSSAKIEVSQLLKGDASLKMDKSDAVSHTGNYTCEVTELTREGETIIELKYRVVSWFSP

binding result [1]: binds
B1: H3L2, humanized variant of 1C8 (antibody, V domains shown)
VH: QSVKESGGGLFQPGGSLRLSCSVSGFSLSSYAISWVRQAPGKGLEYIGYISSIGDPYYADWVKGRFTISRDSSTVYLQMTSLRAEDTAVYFCARSYPGNGDLGRLDIWGQGTTVTVSS
VL: DPQLTQSPSFVSASVGDRVTITCRSSQSVYRNKYLSWYQQKPGKAPKLLIYYASTLASGVPSRFSGSGSGTEFTLTISSVQPEDAATYYCAGDYSDDIENAFGQGTKVEIK

fold lower binding affinity than 1C8 [2]: 3 fold
binding result [3]: binds
B2: H4L3, humanized variant of 1C8 (antibody, V domains shown)
VH: QSVKESGGGLFQPGGSLRLSCSVSGFSLSSYAISWVRQAPGKGLEYIGYISSIGDPYYADWVKGRFTISRDNSKNTVYLQMTSLRAEDTAVYFCARSYPGNGDLGRLDIWGQGTTVTVSS
VL: DPMLTQSPSFLSASVGDRVTITCQSSQSVYRNKYLSWYQQKPGKAPKLLIYYASTLASGVPSRFSGSGSGTEFTLTISSLQPEDFATYYCAGDYSDDIENAFGGGTKVEIK

binding result [1]: binds
B3: H4L2, humanized variant of 1C8 (antibody, V domains shown)
VH: QSVKESGGGLFQPGGSLRLSCSVSGFSLSSYAISWVRQAPGKGLEYIGYISSIGDPYYADWVKGRFTISRDNSKNTVYLQMTSLRAEDTAVYFCARSYPGNGDLGRLDIWGQGTTVTVSS
VL: DPQLTQSPSFVSASVGDRVTITCRSSQSVYRNKYLSWYQQKPGKAPKLLIYYASTLASGVPSRFSGSGSGTEFTLTISSVQPEDAATYYCAGDYSDDIENAFGQGTKVEIK

EC50 [4]: 0.04 µg/mL
B4: Hu5F9-G4, humanized mouse anti-human CD47 antibody (antibody, V domains shown)
VH: QVQLVQSGAEVKKPGASVKVSCKASGYTFTNYNMHWVRQAPGQRLEWMGTIYPGNDDTSYNQKFKDRVTITADTSASTAYMELSSLRSEDTAVYYCARGGYRAMDYWGQGTLVTVSS
VL: DIVMTQSPLSLPVTPGEPASISCRSSQSIVYSNGNTYLGWYLQKPGQSPQLLIYKVSNRFSGVPDRFSGSGSGTDFTLKISRVEAEDVGVYYCFQGSHVPYTFGQGTKLEIK

— article PMC12302720 (The Journal of Biological Chemistry, 2025)
